Positions count from the first letter of the chain named.

Assay [1] has as its target T1, recombinant human CD123-Fc (human, UniProt P26951 19-305).
T1 construct: not shown: Fc part of CD123-Fc
T1 sequence: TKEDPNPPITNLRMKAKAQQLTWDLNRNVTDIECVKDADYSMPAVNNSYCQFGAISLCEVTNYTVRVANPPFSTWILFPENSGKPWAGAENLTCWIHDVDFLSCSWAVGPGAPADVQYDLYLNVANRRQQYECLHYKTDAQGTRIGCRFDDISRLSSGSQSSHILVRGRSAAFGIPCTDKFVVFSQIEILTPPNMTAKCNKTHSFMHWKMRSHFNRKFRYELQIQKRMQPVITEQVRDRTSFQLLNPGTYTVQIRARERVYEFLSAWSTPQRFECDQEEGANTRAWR
Put plainly: phage ELISA, A450 target/A450 IgG1-Fc. In short, it runs like this: (§1)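 Phage were rescued in 96-well format with VCSM13 helper phage from individual phagemid colonies picked from panning output. Plates were coated with 1.3 microg/ml goat anti-human IgG1-Fc antibody, then 5 nM recombinant human target or IgG1-Fc, then 50 microl phage diluted 5× in ELISA blocking buffer. Binding was detected with HRP-conjugated anti-M13 antibody at 450 nm. The ELISA ratio is target over IgG1-Fc absorbance, averaged across all screened wells holding that clone.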

Another assay deals with T2, AFP p26 (human, UniProt P02771 381-609).
T2 construct: The construct used is not described
T2 sequence: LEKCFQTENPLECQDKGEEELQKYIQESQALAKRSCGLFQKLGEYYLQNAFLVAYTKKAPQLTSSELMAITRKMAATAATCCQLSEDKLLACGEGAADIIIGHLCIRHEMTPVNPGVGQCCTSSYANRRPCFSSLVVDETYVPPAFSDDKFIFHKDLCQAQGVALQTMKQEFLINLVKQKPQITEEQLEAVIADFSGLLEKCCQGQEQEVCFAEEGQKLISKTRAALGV
Put plainly: phage ELISA, A450 target/A450 IgG1-Fc. In short, it runs like this: as §1
In general terms: An ELISA detects its analyte on a solid surface through an enzyme-linked reagent.

B1: SEQ ID NO 627 (designed binder)
chain: MGSWYEFEQRLGAIEERLWALGGSEAELAAFEDIIAYFEYQLQSYKGKGNPEVEALDEEAWAIDDELWAYRHN
As for B1, the ELISA_avg in assay [1] was 10.6 ratio.

B2: SEQ ID NO 648 (designed binder)
chain: MGSWDEFEERLQAIEYRLWALGGSEAELAWFEEVIAQFEYDLQKYKGKGNPEVEALSTEAQAIQDELWAYRHN
As for B2, the ELISA_avg in assay [1] was 3.8 ratio.

B3: SEQ ID NO 643 (designed binder)
chain: MGSWWEFSWRLEAIETRLDALGGSEAELAFFEMDIAWFEQDLQLYKGKGNPEVEALEEEAYAIYEELEAYRHN
Regarding B3, in assay [1], the ELISA_avg is 3.3 ratio.

B4: SEQ ID NO 868 (designed binder)
chain: MGSWIHFKNDLAVIKDELEALGGSEAELARFEIMIAWFEDALQWYKGKGNPEVEALRKEAAAIRDELQAYRHN
On to B4, for which the ELISA_avg with AFP p26 was determined as 17.9 ratio.

B5: SEQ ID NO 640 (designed binder)
chain: MGSWAEFEDRLAAIERRLEALGGSEAELADFESSIAWFEPDLQYYKGKGNPEVEALMYEAEAIFSELYAYRHN
For the molecule B5, the ELISA_avg in assay [1] came out at 4.2 ratio.

B6: SEQ ID NO 646 (designed binder)
chain: MGSWFEFEERLEAIIYRLWALGGSEAELAMFEESIAWFESDLQQYKGKGNPEVEALEYEAMAISKELKAYRHN
In the case of B6, in assay [1], the ELISA_avg came to 3.7 ratio.

B7: SEQ ID NO 647 (designed binder)
chain: MGSWAEFDDRLEAIEYRLHALGGSEAELAWFEEGIAGFEHALQSYKGKGNPEVEALETEAGAINEELWAYRHN
Regarding B7, in assay [1], the ELISA_avg came to 5.8 ratio.

B8: SEQ ID NO 872 (designed binder)
chain: MGSWVVFKSSLAQIKILLEALGGSEAELAIFEVKIAHFEQELQEYKGKGNPEVEALRKEAAAIRDELQAYRHN
Turning to B8, the ELISA_avg with AFP p26 stood at 8.6 ratio.

B9: SEQ ID NO 873 (designed binder)
chain: B8 chain with V5D, V6Q, S9N, Q13S, I16R, L17V, Q40H, E41F, E44Q
In the assay with AFP p26, B9 gave an ELISA_avg of 15.6 ratio.

B10: SEQ ID NO 638 (designed binder)
chain: MGSWWEFEDRLWAIDRRLMALGGSEAELAVFEQMIAHFEQILQVYKGKGNPEVEALHFEAHAIGMELAAYRHN
Take B10: the ELISA_avg in assay [1] was 4.6 ratio.

B11: SEQ ID NO 628 (designed binder)
chain: MGSWWEFEQRLDAIETRLWALGGSEAELAYFEHIIADFEDELQIYKGKGNPEVEALGWEAFAIDGELTAYRHN
On to B11, for which the ELISA_avg in assay [1] turned out to be 4.7 ratio.

B12: SEQ ID NO 644 (designed binder)
chain: MGSWEEFFFRLEAIDDRLYALGGSEAELALFEEVIAYFEQDLQWYKGKGNPEVEALYVEAYAIQEELYAYRHN
On to B12, for which, in assay [1], the ELISA_avg was 3.2 ratio.

B13: SEQ ID NO 870 (designed binder)
chain: MGSWKNFKLELALIKSKLEALGGSEAELAQFEADIAFFEWSLQWYKGKGNPEVEALRKEAAAIRDELQAYRHN
In the case of B13, the ELISA_avg with AFP p26 came to 20.6 ratio.

B14: SEQ ID NO 649 (designed binder)
chain: MGSWWEFTDRLDAIFDRLWALGGSEAELAAFEESIAIFEQDLQYYKGKGNPEVEALEYEANAIQYELEAYRHN
B14: the ELISA_avg in assay [1] amounted to 7.5 ratio.

B15: SEQ ID NO 869 (designed binder)
chain: MGSWMVFKQDLAEIKANLEALGGSEAELADFEFAIAWFEYELQWYKGKGNPEVEALRKEAAAIRDELQAYRHN
B15: the ELISA_avg in the assay with AFP p26 is 17.8 ratio.

B16: SEQ ID NO 636 (designed binder)
chain: MGSWFEFQWRLEAIEDRLWALGGSEAELAEFETIIAGFEEQLQVYKGKGNPEVEALEEEAMAIQTELHAYRHN
Consider B16, for which the ELISA_avg in assay [1] stood at 3.4 ratio.

B17: SEQ ID NO 645 (designed binder)
chain: MGSWFEFEERLNAISWRLHALGGSEAELAYFEEDIAWFEDDLQFYKGKGNPEVEALENEAYAIWEELDAYRHN
Turning to B17, in assay [1], the ELISA_avg was determined as 13 ratio.

B18: SEQ ID NO 641 (designed binder)
chain: MGSWWEFYDRLTAIEARLWALGGSEAELADFEEGIADFEYDLQDYKGKGNPEVEALFWEAWAIQSELTAYRHN
Regarding B18, the ELISA_avg in assay [1] was 3.2 ratio.

B19: SEQ ID NO 639 (designed binder)
chain: MGSWWEFLDRLEAIEYRLQALGGSEAELAVFEWEIAMFEDHLQGYKGKGNPEVEALHSEAHAIISELSAYRHN
B19: in assay [1], the ELISA_avg is 3.1 ratio.

B20: SEQ ID NO 632 (designed binder)
chain: MGSWDEFDARLWAIEERLWALGGSEAELAEFEFMIAAFEDVLQEYKGKGNPEVEALMGEANAIVMELDAYRHN
B20: the ELISA_avg in assay [1] was found to be 4.3 ratio.

B21: SEQ ID NO 863 (designed binder)
chain: MGSWEIFKDDLASIKKVLEALGGSEAELALFESDIAWFELMLQYYKGKGNPEVEALRKEAAAIRDELQAYRHN
On to B21, for which the ELISA_avg with AFP p26 turned out to be 27.9 ratio.

B22: SEQ ID NO 867 (designed binder)
chain: MGSWIAFKDHLAIIKQRLEALGGSEAELARFEFEIAWFEWMLQYYKGKGNPEVEALRKEAAAIRDELQAYRHN
Regarding B22, the ELISA_avg with AFP p26 came out at 29.9 ratio.

B23: SEQ ID NO 871 (designed binder)
chain: MGSWHSFKQDLAYIKYLLEALGGSEAELAQFEELIAFFEYYLQTYKGKGNPEVEALRKEAAAIRDELQAYRHN
In the case of B23, the ELISA_avg with AFP p26 was determined as 25.6 ratio.

B24: SEQ ID NO 635 (designed binder)
chain: MGSWYEFYWRLEAIEERLWALGGSEAELAEFEKAIATFEDQLQTYKGKGNPEVEALETEALAIHAELEAYRHN
Take B24: in assay [1], the ELISA_avg worked out at 3.7 ratio.

B25: SEQ ID NO 633 (designed binder)
chain: MGSWYEFWRRLDAIEERLWALGGSEAELAMFETDIAGFEWMLQLYKGKGNPEVEALEHEAWAINSELDAYRHN
As for B25, the ELISA_avg in assay [1] is 3.6 ratio.

B26: SEQ ID NO 861 (designed binder)
chain: MGSWSYFKEDLANIKSSLEALGGSEAELAWFESSIAWFEHTLQYYKGKGNPEVEALRKEAAAIRDELQAYRHN
With B26, the ELISA_avg with AFP p26 is 11.6 ratio.

B27: SEQ ID NO 864 (designed binder)
chain: B21 chain with E5S, S13V, K16E, V17R, L30H, S33Q, L40H, M41L
For B27, the ELISA_avg with AFP p26 came to 25.6 ratio.

B28: SEQ ID NO 642 (designed binder)
chain: MGSWYEFEDRLAAIEARLWALGGSEAELADFEEEIAYFEHGLQWYKGKGNPEVEALESEAMAIIDELHAYRHN
Regarding B28, the ELISA_avg in assay [1] came out at 3.8 ratio.

B29: SEQ ID NO 874 (designed binder)
chain: MGSWNNFKSSLASIKQVLEALGGSEAELAVFELQIAHFERELQYYKGKGNPEVEALRKEAAAIRDELQAYRHN
In the assay with AFP p26, B29 registered an ELISA_avg of 24.1 ratio.

B30: SEQ ID NO 630 (designed binder)
chain: MGSWVEFYDRLEAIEIRLWALGGSEAELADFESFIAHFEDDLQAYKGKGNPEVEALMDEANAIVFELDAYRHN
Regarding B30, in assay [1], the ELISA_avg was 4 ratio.

B31: SEQ ID NO 865 (designed binder)
chain: MGSWSVFKDDLAQIKDRLEALGGSEAELAQFELDIAWFEYVLQFYKGKGNPEVEALRKEAAAIRDELQAYRHN
For B31, the ELISA_avg with AFP p26 stood at 30.3 ratio.

B32: SEQ ID NO 866 (designed binder)
chain: B31 chain with S5A, D10S, Q13H, R17V, Q30L, L33M, F44D
Consider B32, for which the ELISA_avg with AFP p26 turned out to be 24.1 ratio.

B33: SEQ ID NO 637 (designed binder)
chain: MGSWWEFEDRLWAIEQRLDALGGSEAELAVFENSIAKFEDMLQVYKGKGNPEVEALHEEADAIIWELYAYRHN
For B33, the ELISA_avg in assay [1] was 4.4 ratio.

B34: SEQ ID NO 629 (designed binder)
chain: MGSWFEFPYRLEAIEERLYALGGSEAELAQFEQFIAWFEMDLQDYKGKGNPEVEALWFEANAIVEELDAYRHN
B34: the ELISA_avg in assay [1] was determined as 3.1 ratio.

B35: SEQ ID NO 631 (designed binder)
chain: MGSWVEFWDRLDAIEERLWALGGSEAELAEFEFMIAMFEQHLQEYKGKGNPEVEALIPEAGAIDKELTAYRHN
As to B35, the ELISA_avg in assay [1] was 10 ratio.

B36: SEQ ID NO 634 (designed binder)
chain: MGSWHEFIWRLDAIEERLWALGGSEAELAWFETEIATFEAQLQDYKGKGNPEVEALEWEAIAIAWELDAYRHN
Consider B36, for which the ELISA_avg in assay [1] stood at 3.3 ratio.

B37: SEQ ID NO 857 (designed binder)
chain: MGSWYTFKGSLAEIKNRLEALGGSEAELAMFESDIAWFEFMLQFYKGKGNPEVEALRKEAAAIRDELQAYRHN
On to B37, for which the ELISA_avg with AFP p26 amounted to 32.3 ratio.

B38: SEQ ID NO 858 (designed binder)
chain: B37 chain with Y5F, G9D, S10D, E13Q, M30N, S33M, D34S, F44Y
In the case of B38, in the assay with AFP p26, the ELISA_avg came out at 30.8 ratio.

Source of the values: patent US20230125550A1 (ARCELLX, published 2023).
